In PMC5218472 (PLoS Biology, 2017):

Legend:
ADAM10 = assay: Ionomycin-induced ADAM10-mediated IL-6R ectodomain shedding in transiently transfected HEK293 cells, sIL-6R ELISA; type: cell-based, human; settings: for sIL-6R shedding, Figure S4E, mean / sIL-6R shedding, Figure S4B, mean: normalised to PV Iono = 100; for sIL-6R shedding, Figure S4G, mean: normalised to PVQD Iono = 100
Text: Analysis of IL-6R ectodomain shedding in transiently transfected HEK293 cells or stably transduced Ba/F3-gp130 cell lines by ADAM10 and ADAM17 has been described elsewhere. Analysis of IL-6R proteolysis by CG has been described previously.
The sandwich ELISA, which detects sIL-6R as well as ds-sIL-6R (4-11/Baf227 antibodies) and can be used to quantify total sIL-6R serum levels, was described previously. To specifically detect ds-sIL-6R (either recombinant or in human serum), a similar approach was used (ds6R/Baf227). Both sandwich ELISAs were performed with streptavidin-horseradish peroxidase (R&D Systems, Minneapolis, Minnesota, US) and the peroxidase substrate BM blue POD (Roche, Mannheim, Germany). The enzymatic reaction was stopped by addition of 1.8 M sulfuric acid, and the absorbance read at 450 nm on a Tecan rainbow reader (Tecan, Crailsheim, Germany).
Supplementary file pbio.2000080.s004.tif: S4 Fig Mutation of Val-356 is sufficient to block ADAM10-mediated proteolysis of the IL-6R and the Asp358Ala variant. (A) HEK293 cells were transiently transfected with Expression plasmids encoding the wildtype IL-6R (PV) or the double mutants (IE, DG) as indicated. Cells were either treated with 1 μM ionomycin for 1 h or DMSO as vehicle control. sIL-6R was precipitated from the supernatant with concanavalin A-covered Sepharose beads, and cells were lysed. Both were analyzed via Western blot, and β-actin served as loading control. One out of three experiments with similar outcome is shown. (B, C) The experiment was performed as described under (A), but sIL-6R generation was analyzed via ELISA. In (B), the amount of sIL-6R generated after ionomycin-stimulation of the wildtype IL-6R (PV) was set to 100%, and all other values were calculated accordingly. In (C), the amount of sIL-6R without stimulation was considered as constitutive shedding and set to 1 and the increase of sIL-6R was calculated. Data shown are the mean ± SD from at least three independent experiments (*p<0.05, ns = no significant difference). (D-F) HEK293 cells were transiently transfected with expression plasmids encoding the wildtype IL-6R (PV) or the single mutants (DV, IV, PE, PG) as indicated. The experiments were performed as described in (A) to (C). (G) ADAM10-mediated proteolysis of the IL-6R variants depicted in Fig 4I was analyzed as described in (B). (H) Equal numbers of Ba/F3-gp130-IL-6R_DG cells were incubated for 48 h with increasing amounts (0–100 ng/ml) of either IL-6 or Hyper-IL-6. One representative experiment out of three performed is shown (mean ± SD, biological triplicates). (TIF) Click here for additional data file.

[1] = test system: Ba/F3-gp130-hIL-6R and Ba/F3-gp130-hIL-6R-4N cells; assay: IL-6R internalization assay (cell-surface turnover, flow cytometry); type: cell-based; settings: for IL-6R remaining at the cell surface (0 min = 100), mean: mean of 3
Description: Fig 6 N- and O-linked glycosylation are dispensable for intracellular transport and signaling of the IL-6R. (A–G) Equal numbers of Ba/F3-gp130 cells were incubated for 48 h with increasing amounts (0–100 ng/ml) of either IL-6 or Hyper-IL-6. The stably transduced IL-6R variant is indicated above the diagram. One representative experiment out of three performed is shown (mean ± SD, biological triplicates). (H) Equal numbers of Ba/F3-gp130-hIL-6R and Ba/F3-gp130-hIL-6R-4N cells were labeled with an anti-IL-6R antibody and incubated at 37°C for the indicated time periods. The remaining cell-surface expression of the IL-6R was analyzed via flow cytometry. Data shown are the mean ± SD from three independent experiments.
In order to analyze internalization of the IL-6R, 1 x 10^7 cells were washed in PBS, seeded onto a 10 cm dish in serum-free DMEM, and starved for 2 h at 37°C. Afterwards, cells were again washed with PBS, and the IL-6R was labeled with the 4–11 antibody diluted in FACS buffer (1% BSA in PBS). After 1 h incubation on ice, cells were washed and resuspended in 10 ml serum-free DMEM, seeded onto a 10 cm dish, and shifted back to 37°C. At the time points indicated (0–180 min), 1 ml of the cell suspension was taken from the dish, transferred into a 1.5 ml reaction tube, and kept on ice to inhibit further internalization of the IL-6R. After obtaining the last sample, the cells were washed in cold FACS buffer, and the remaining IL-6R on the cell surface was stained with an APC-conjugated anti-mouse mAb. The cells were washed again and analyzed by flow cytometry using the BD Biosciences FACS Canto II (Becton-Dickinson, Heidelberg, Germany).

B1: PV: wild-type human IL-6R, cleavage site Pro-355/Val-356 (protein)
chain: LAPRRCPAQEVARGVLTSLPGDSVTLTCPGVEPEDNATVHWVLRKPAAGSHPSRWAGMGRRLLLRSVQLHDSGNYSCYRAGRPAGTVHLLVDVPPEEPQLSCFRKSPLSNVVCEWGPRSTPSLTTKAVLLVRKFQNSPAEDFQEPCQYSQESQKFSCQLAVPEGDSSFYIVSMCVASSVGSKFSKTQTFQGCGILQPDPPANITVTAVARNPRWLSVTWQDPHSWNSSFYRLRFELRYRAERSKTFTTWMVKDLQHHCVIHDAWSGLRHVVQLRAQEEFGQGEWSEWSPEAMGTPWTESRSPPAENEVSTPMQALTTNKDDDNILFRDSANATSLPVQDSSSVPLPTFLVAGGSLAFGTLLCIAIVLRFKKTWKLRALKEGKTSMHPPYSLGQLVPERPRPTPVLVPLISPPVSPSSLGSDNTSSHNRPDARDPRSPYDISNTDYFFPR
modifications: N-linked glycans at Asn-55, Asn-93, Asn-221, Asn-245 and Asn-350, O-linked glycan at Thr-352 (mapped on sIL-6R shed from transfected HEK293 cells)
ratio of sIL-6R Iono / DMSO, Figure S4F, mean (ADAM10; mean of n = 3): 3.48
ratio of sIL-6R Iono / DMSO, Figure S4C, mean (ADAM10; mean of replicates): 2.623
sIL-6R shedding, Figure S4E, mean (ADAM10; treatment DMSO, mean of n = 3): 35.7033
sIL-6R shedding, Figure S4B, mean (ADAM10; treatment DMSO, mean of replicates): 40.5833
sIL-6R shedding, Figure S4G, mean (ADAM10; treatment DMSO, mean of n = 3): 48.1333
sIL-6R shedding, Figure S4E, mean (ADAM10; treatment Iono, mean of n = 3): 100
sIL-6R shedding, Figure S4B, mean (ADAM10; treatment Iono, mean of replicates): 100
sIL-6R shedding, Figure S4G, mean (ADAM10; treatment Iono, mean of n = 3): 100
IL-6R remaining at the cell surface (0 min = 100), mean ([1]; block 1 (wt), 15 min): 79.6667
IL-6R remaining at the cell surface (0 min = 100), mean ([1]; block 1 (wt), 30 min): 59
IL-6R remaining at the cell surface (0 min = 100), mean ([1]; block 1 (wt), 60 min): 46
IL-6R remaining at the cell surface (0 min = 100), mean ([1]; block 1 (wt), 90 min): 35
IL-6R remaining at the cell surface (0 min = 100), mean ([1]; block 1 (wt), 120 min): 23.6667
IL-6R remaining at the cell surface (0 min = 100), mean ([1]; block 1 (wt), 150 min): 16.6667
IL-6R remaining at the cell surface (0 min = 100), mean ([1]; block 1 (wt), 180 min): 13.3333
IL-6R remaining at the cell surface (0 min = 100), mean ([1]; block 2, 15 min): 85.6667
IL-6R remaining at the cell surface (0 min = 100), mean ([1]; block 2, 30 min): 65
IL-6R remaining at the cell surface (0 min = 100), mean ([1]; block 2, 60 min): 49.3333
IL-6R remaining at the cell surface (0 min = 100), mean ([1]; block 2, 90 min): 45
IL-6R remaining at the cell surface (0 min = 100), mean ([1]; block 2, 120 min): 35.6667
IL-6R remaining at the cell surface (0 min = 100), mean ([1]; block 2, 150 min): 27.6667
IL-6R remaining at the cell surface (0 min = 100), mean ([1]; block 2, 180 min): 24.3333
t1/2 of IL-6R at the cell surface ([1]; pulse-chase with 4-11 antibody, 37°C, flow cytometry, mean ± SD, n = 3): 44.1 ± 8.1 min
